Each binder was assayed against T1, HLA-A3.2 molecules isolated from the EBV transformed cell line GM3107 (human) (assay: competition with radiolabeled probe [..], purified HLA-A3.2; IC50 standard / IC50 peptide). Settings: not given.

Row | Binder | binding ratio to standard
1 | QQLLRREVY (modifications not checked) [… (residues 42-50 of HPV16 protein E6)] | 0.0058
2 | SLYGTTLEQ (modifications not checked) [… (residues 89-97 of HPV16 protein E6)] | 0.008
3 | TTLEQQYNK (modifications not checked) [… (residues 93-101 of HPV16 protein E6)] | 0.078

Same assay, conditions: remark: other sources report otherwise

Row | Binder | binding ratio to standard
4 | IVYRDGNPY (modifications not checked) [… (residues 59-67 of HPV16 protein E6)] | 3
5 | AMFQDPQER (modifications not checked) [… (residues 7-15 of HPV16 protein E6)] | 0.1
6 | HLDKKQRFH (modifications not checked) [… (residues 125-133 of HPV16 protein E6)] | 0.44

These binders were tested against HLA-A1 molecules isolated from the EBV transformed cell line Steinlin (human) (assay: competition with radiolabeled probe [..], purified HLA-A1; IC50 standard / IC50 peptide). Settings: not given.

Row | Binder | binding ratio to standard
7 | HVDIRTLED (modifications not checked) [… (residues 73-81 of HPV16 protein E7)] | 0.014
8 | YRDGNPYAV (modifications not checked) [… (residues 61-69 of HPV16 protein E6)] | 0.008
9 | EIDGPAGQA (modifications not checked) [… (residues 37-45 of HPV16 protein E7)] | 0.025

These binders were tested against T1, HLA-A3.2 molecules isolated from the … (assay: not given). Settings: not given.

Row | Binder | IC50
10 | KVFPYALINK (modifications not checked) [probe peptide … for A3.2] | 30 nM

Same assay, conditions: remark: other sources report otherwise

Row | Binder | binding ratio to standard
11 | KFYSKISEY (modifications not checked) [… (residues 75-83 of HPV16 protein E6)] | 0.01

The binders below were run against HLA-A2.1 molecules expressed by 174CEM.T2 cells (human) (assay: T2 HLA-A2.1 stabilisation, flow cytometry (BB7.2), peptide 200 ug/ml). Settings: not given.

Row | Binder | FI (Fluorescence Index) | MF (mean fluorescence)
12 | RLCVQSTHV (modifications not checked) [… (residues 66-74 of HPV16 protein E7)] | 2.8 | 250
13 | TIHDIILEC (modifications not checked) [… (residues 29-37 of HPV16 protein E6)] | 1.8 | 184
14 | TLEDLLMGT (modifications not checked) [… (residues 78-86 of HPV16 protein E7)] | 1.8 | 183
15 | SLQDIEITC (modifications not checked) [… (residues 24-32 of HPV18 protein E6)] | 0.7 | 244
16 | KISEYRHYC (modifications not checked) [… (residues 79-87 of HPV16 protein E6)] | 2.2 | 212
17 | LCTELQTTI (modifications not checked) [… (residues 22-30 of HPV16 protein E6)] | 0.7 | 114
18 | IHDIILECV (modifications not checked) [… (residues 30-38 of HPV16 protein E6)] | 1.3 | 151
19 | PLCDLLIRC (modifications not checked) [… (residues 102-110 of HPV16 protein E6)] | 2.1 | 205
20 | LSFVCPWCA (modifications not checked) [… (residues 94-102 of HPV18 protein E7)] | 0.9 | 262
21 | LFLNTLSFV (modifications not checked) [… (residues 89-97 of HPV18 protein E7)] | 1.6 | 360
22 | LTNTGLYNL (modifications not checked) [… (residues 93-101 of HPV18 protein E6)] | 1.5 | 352
23 | GTLGIVCPI (modifications not checked) [… (residues 85-93 of HPV16 protein E7)] | 2.3 | 216
24 | KTVLELTEV (modifications not checked) [… (residues 36-44 of HPV18 protein E6)] | 2.3 | 468
25 | MLDLQPETT (modifications not checked) [… (residues 12-20 of HPV16 protein E7)] | 2.3 | 218
26 | YMLDLQPET (modifications not checked) [… (residues 11-19 of HPV16 protein E7)] | 3.3 | 284
27 | FQQLFLNTL (modifications not checked) [… (residues 86-94 of HPV18 protein E7)] | 0.8 | 244
28 | FAFKDLFVV (modifications not checked) [… (residues 47-55 of HPV18 protein E6)] | 2.3 | 463
29 | QLFLNTLSF (modifications not checked) [… (residues 88-96 of HPV18 protein E7)] | 0.8 | 258
30 | DTLEKLTNT (modifications not checked) [… (residues 88-96 of HPV18 protein E6)] | 0.7 | 238

Same assay, conditions: remark: other sources report otherwise

Row | Binder | FI (Fluorescence Index) | MF (mean fluorescence)
31 | CVYCKQQLL (modifications not checked) [… (residues 37-45 of HPV16 protein E6)] | 2 | 195
32 | EITCVYCKT (modifications not checked) [… (residues 29-37 of HPV18 protein E6)] | 0.5 | 206
33 | QLCTELQTT (modifications not checked) [… (residues 21-29 of HPV16 protein E6)] | 2.2 | 212
34 | KLPDLCTEL (modifications not checked) [… (residues 13-21 of HPV18 protein E6)] | 2.1 | 439
35 | ELTEVFEFA (modifications not checked) [… (residues 40-48 of HPV18 protein E6)] | 1.1 | 289

These binders were tested against HLA-A11.2 molecules isolated from the cell line BVR (human) (assay: competition with radiolabeled probe [..], purified HLA-A11.2; IC50 standard / IC50 peptide). Settings: not given.

Row | Binder | binding ratio to standard
36 | QQLLRREVY (modifications not checked) [… (residues 42-50 of HPV16 protein E6)] | 0.0084

Same assay, conditions: remark: other sources report otherwise

Row | Binder | binding ratio to standard
37 | IVYRDGNPY (modifications not checked) [… (residues 59-67 of HPV16 protein E6)] | 0.47
38 | AMFQDPQER (modifications not checked) [… (residues 7-15 of HPV16 protein E6)] | 0.84

Each binder was assayed against HLA-A24 molecules isolated from the EBV transformed cell line KT3 (human) (assay: competition with radiolabeled probe [..], purified HLA-A24; IC50 standard / IC50 peptide). Settings: not given.

Row | Binder | binding ratio to standard
39 | VYDFAFRDL (modifications not checked) [… (residues 49-57 of HPV16 protein E6)] | 0.061
40 | MHQKRTAMF (modifications not checked) [… (residues 1-9 of HPV16 protein E6)] | 0.0049
41 | RFHNIRGRW (modifications not checked) [… (residues 131-139 of HPV16 protein E6)] | 0.1
42 | LLRREVYDF (modifications not checked) [… (residues 44-52 of HPV16 protein E6)] | 0.0023
43 | RAHYNIVTF (modifications not checked) [… (residues 49-57 of HPV16 protein E7)] | 0.067

From patent US7364741
